Assay [1] has as its target corresponding proteinases (proteinase of the comparative inhibition assay, not named). The experiment in a line: cell-based or functional assay.
Assay [2] has the same target. The experiment in a line: cell-based or functional assay. This is another data set of the same source.
In assay [3] the target is T1, papain (UniProt P00784 134-345).
T1 sequence (looked up): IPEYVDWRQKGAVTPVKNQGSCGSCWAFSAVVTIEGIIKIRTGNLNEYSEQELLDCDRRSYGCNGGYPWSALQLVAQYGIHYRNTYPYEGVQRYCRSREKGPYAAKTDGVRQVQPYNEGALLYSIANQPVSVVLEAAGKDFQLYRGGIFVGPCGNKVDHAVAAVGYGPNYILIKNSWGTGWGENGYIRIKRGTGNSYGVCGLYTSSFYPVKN
In words: proteinase inhibition assay (Barrett), Ki calculated as by Abe et al. How it is done:
(§1) To determine the Ki of cystatins biochemical assays were performed according to the procedure of Barrett (7) and Ki values were calculated as described by Abe et al. (3)

Assay [4] concerns the target T2, C. elegans cysteine proteinase gcp-1, expressed and purified from E. coli (Caenorhabditis elegans, UniProt P25807 85-329, limits assumed).
T2 construct: also called gcp-I; glp-1
T2 sequence (looked up): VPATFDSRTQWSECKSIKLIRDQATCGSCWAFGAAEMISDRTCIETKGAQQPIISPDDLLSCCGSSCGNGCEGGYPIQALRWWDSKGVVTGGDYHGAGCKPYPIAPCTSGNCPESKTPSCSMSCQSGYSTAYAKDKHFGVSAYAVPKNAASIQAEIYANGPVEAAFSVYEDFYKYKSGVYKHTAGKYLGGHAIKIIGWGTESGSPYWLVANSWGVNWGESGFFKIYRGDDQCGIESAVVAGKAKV
The assay is described as above. How it is done:
as §1

For assay [5], the target named is T1, papain. In words: proteinase inhibition assay, Ki.
In assay [6] the target is T2, C. elegans cysteine proteinase gcp-1, …. In words: proteinase inhibition assay, Ki.

Where a chain is given by its changes, count along the chain named. Read-outs that look alike come from different tables or passages of the source.

By Ki is commonly meant a measure of affinity in units of concentration, obtained from inhibition or displacement.

With “Chicken egg white cystatin (CEWC) (from UniProt P01038 24-139)”, the relative percentage inhibition in assay [1] was found to be 100%.

For “OC-NTERM1-15QVLSG40-63CTERM97-116 (hybrid of Oc-I with three CEWC regions) (from UniProt P09229 56-77; P09229 102-123)”, the relative percentage inhibition in assay [1] was 90%.

B1: Oryzacystatin I (Oc-I), wild type, expressed from pQE30 in E. coli (other, Oryza sativa L. japonica)
chain: HHHHHHMSSDGGPVLGGVEPVGNENDLHLVDLARFAVTEHNKKANSLLEFEKLVSVKQQVVAGTLYYFTIEVKEGDAKKLYEAKVWEKPWMDFKELQEFKPVDASANA
notes: the present UniProt entry may carry a longer N-terminus, so the numbering must be checked; also called Oryzacystatin Oc-I; native Oc-I
Regarding B1, the relative percentage inhibition in assay [2] was determined as 60%. Moreover, the Ki with papain [3] is 7 nM; in assay [4] it was 8 nM.

B2: Oc-IdeltaD86 (Oryzacystatin I with aspartic acid 86 deleted) (other)
chain: HHHHHHMSSDGGPVLGGVEPVGNENDLHLVDLARFAVTEHNKKANSLLEFEKLVSVKQQVVAGTLYYFTIEVKEGDAKKLYEAKVWEKPWMFKELQEFKPVDASANA
In turn, B2 yielded a relative percentage inhibition in assay [1] of 88%. Also, the “fold lowering of Ki against wild type Oc-I” value (in the assay with papain [5]; in assay [6]) was around 13 fold each time. Also, the Ki with papain [3] was 0.5 nM; in assay [4] it was 0.6 nM.

B3: Oc-I with deletion of residue M85 (other)
chain: B2 chain with M91D
Regarding B3, the Ki in assay [4] was 7.1 nM.

The values are drawn from patent publication US6680424 (UNIVERSITY OF LEEDS, dated 2004).
